Laboratory results: article doi:10.1101/2025.04.11.646618

Experiments:
RPS4-HF (Arabidopsis) = RPS4-HF (Arabidopsis) (UniProt Q9XGM3); experiment: co-IP
YFP-RPS4 (Arabidopsis) = YFP-RPS4 (Arabidopsis) (UniProt Q9XGM3); experiment: co-IP

stoichiometry N (RPS4-HF (Arabidopsis)) | stoichiometry N (YFP-RPS4 (Arabidopsis)) | Substance
1 |  | RRS1-R-GFP (receptor)
 | 1 | RRS1-R-HF (receptor)
